Measured values: PMC2833306

Biological target: integrins on HS deficient CHO-2241 cells (Chinese hamster (endogenous in CHO-2241))
Assay: flow cytometry on cells; CHO-2241 cells (HS deficient) in PBS 1 mM CaCl2, 1 h at 4°C with 15 ug/mL particles; bound particles detected with rabbit serum against the Ad3 penton base and FITC secondary antibody

## MutAQAS dodecahedron (HAd3 penton base, KQKR to AQAS) (from UniProt Q2Y0H9 1-544) (complex)
  inhibition of binding compared to Bs-Dd: 80%
